# Reference: the supplement of paper PMC9112550, “Optimization of the antimicrobial peptide Bac7 by deep mutational scanning” (BMC Biology, 2022)
# Test system: Escherichia coli TOP10
# Experiment: shrunken log2 fold change of peptide-encoding DNA abundance (4.5 h post-induction vs induction); higher = less antimicrobial activity (less host growth inhibition)
# Settings: time post-induction: 4.5 h; library: site-saturation at positions 5, 18, 19, 20
# 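Note: peptides expressed intracellularly from a pBAD plasmid library in pooled LB shake-flask culture, induced with 0.3% L-arabinose, DNA abundance read by NGS, three biological replicates, DESeq2 with apeglm shrinkage.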
row,Sequence,shrunken log2 fold change
1,RRIRERPPRLPRPRPRPHPVPRP,-0.277
2,RRIRQRPPRLPRPRPRPSTVPRP,-0.534
3,RRIRARPPRLPRPRPRPDETPRP,0.00253
4,RRIRLRPPRLPRPRPRPIVNPRP,-0.803
5,RRIRNRPPRLPRPRPRPPYRPRP,-0.11
6,RRIRCRPPRLPRPRPRPCWAPRP,-0.0725
7,RRIRKRPPRLPRPRPRPGWAPRP,1.04
8,RRIRVRPPRLPRPRPRPGTRPRP,-0.0152
9,RRIRWRPPRLPRPRPRPFLSPRP,-0.0328
10,RRIRCRPPRLPRPRPRPHHNPRP,-0.901
11,RRIRPRPPRLPRPRPRPRGWPRP,1.12
12,RRIRMRPPRLPRPRPRPEPKPRP,2.51
13,RRIRGRPPRLPRPRPRPTQKPRP,1.22
14,RRIRERPPRLPRPRPRPYQDPRP,-0.0275
15,RRIRCRPPRLPRPRPRPKGDPRP,-0.0659
16,RRIRDRPPRLPRPRPRPDNFPRP,0.0301
17,RRIRMRPPRLPRPRPRPLMNPRP,-0.263
18,RRIRGRPPRLPRPRPRPWSMPRP,0.0583
19,RRIRNRPPRLPRPRPRPCAEPRP,-0.169
20,RRIRNRPPRLPRPRPRPPTNPRP,0.151
21,RRIRIRPPRLPRPRPRPEDRPRP,-0.0106
22,RRIRKRPPRLPRPRPRPWTIPRP,0.0185
23,RRIRHRPPRLPRPRPRPALIPRP,0.0852
24,RRIRFRPPRLPRPRPRPHNPPRP,-0.288
25,RRIRYRPPRLPRPRPRPYPIPRP,-0.376
26,RRIRGRPPRLPRPRPRPWQAPRP,0.00236
27,RRIRPRPPRLPRPRPRPAKEPRP,0.0354
28,RRIRRRPPRLPRPRPRPYQEPRP,-0.259

row,Sequence,shrunken log2 fold change
1,RRIRDRPPRLPRPRPRPHQLPRP,-0.0991
2,RRIRLRPPRLPRPRPRPMWPPRP,-0.0364
3,RRIRDRPPRLPRPRPRPSINPRP,-0.113
4,RRIRVRPPRLPRPRPRPKIVPRP,0.2
5,RRIRARPPRLPRPRPRPKNSPRP,-0.0129
6,RRIRVRPPRLPRPRPRPWDQPRP,-0.00149
7,RRIRNRPPRLPRPRPRPWQTPRP,0.0295
8,RRIRFRPPRLPRPRPRPHDCPRP,-0.0297
9,RRIRQRPPRLPRPRPRPLNGPRP,-0.128
10,RRIRTRPPRLPRPRPRPIQYPRP,-0.044
11,RRIRYRPPRLPRPRPRPYFWPRP,-1.4
12,RRIRNRPPRLPRPRPRPCRQPRP,-0.065
13,RRIRSRPPRLPRPRPRPAEVPRP,-0.0708
14,RRIRKRPPRLPRPRPRPSQPPRP,0.0235
15,RRIRTRPPRLPRPRPRPITNPRP,-0.489
16,RRIRSRPPRLPRPRPRPMAHPRP,0.218
17,RRIRWRPPRLPRPRPRPAGYPRP,0.278
18,RRIRFRPPRLPRPRPRPVLMPRP,-0.13
19,RRIRKRPPRLPRPRPRPQSYPRP,0.04
20,RRIRSRPPRLPRPRPRPHFPPRP,-0.397
21,RRIRWRPPRLPRPRPRPALPPRP,0.374
22,RRIRRRPPRLPRPRPRPGTWPRP,0.0793
23,RRIRMRPPRLPRPRPRPGLAPRP,1.51
24,RRIRHRPPRLPRPRPRPWYDPRP,0.0351
25,RRIRKRPPRLPRPRPRPFDGPRP,0.23
26,RRIRSRPPRLPRPRPRPYSPPRP,-0.839
27,RRIRPRPPRLPRPRPRPRIWPRP,0.362
